Reference: patent US20250152704A1 (PARAGON THERAPEUTICS, published 2025)

B1: Fc Fragment 1 (other)
chain: DKTHTCPPCPAPELLGGPSVFLFPPKPKDTLYITREPEVTCVVVDVSHEDPEVKFNWYVDGVEVHNAKTKPREEQYNSTYRVVSVLTVLHQDWLNGKEYKCKVSNKALPAPIEKTISKAKGQPREPQVYTLPPSRDELTKNQVSLTCLVKGFYPSDIAVEWESNGQPENNYKTTPPVLDSDGSFFLYSKLTVDKSRWQQGNVFSCSVMHEALKFHYTQKSLSLSPG
notes: Human IgG1 Fc fragment (EU 221-446) with the named substitutions already in the entry; also called Efgartigimod (Efgart); Efgartigimod without the C-terminal lysine
B2: Fc Fragment 18 (other)
chain: DKTHTCPPCPAPELLGGPSVFLFPPKPKDTLYITREPEVTCVVVDVSHEDPEVKFNWYVDGVEVHNAKTKPREEQYNSTYRVVSVLTVDHQDWLNGKEYKCKVSNKALPAPIEKTISKAKGQPREPQVYTLPPSRDELTKNQVSLTCLVKGFYPSDIAVEWESNGQPENNYKTTPPVLDSDGSFFLYSKLTVDKSRWQQGNVFSCSVLHEALKYHYTQKSLSLSPG
notes: Human IgG1 Fc fragment; substitutions already in the entry
B3: Fc Fragment 15 (other)
chain: DKTHTCPPCPAPELLGGPSVFLFPPKPKDTLYITREPEVTCVVVDVSHEDPEVKFNWYVDGVEVHNAKTKPREEQYNSTYRVVSVLTVDHQDWLNGKEYKCKVSNKALPAPIEKTISKAKGQPREPQVYTLPPSRDELTKNQVSLTCLVKGFYPSDIAVEWESNGQPENNYKTTPPVLDSDGSFFLYSKLTVDKSRWQQGNVFSCSVMHEALKFHYTQKSLSLSPG
notes: as for B2
B4: Fc Fragment 10 (other)
chain: DKTHTCPPCPAPELLGGPSVFLFPPKPKDTLYITREPEVTCVVVDVSHEDPEVKFNWYVDGVEVHNAKTKPREEQYNSTYRVVSVLTVLHQDWLNGKEYKCKVSNKALPAPIEKTISKAKGQPREPQVYTLPPSRDELTKNQVSLTCLVKGFYPSDIAVEWESNGQPENNYKTTPPVLDSDGSFFLYSKLTVDKSRWQQGNVFSCSVLHEALKYHYTQKSLSLSPG
notes: as for B2
B5: Fc Fragment 3 (other)
chain: DKTHTCPPCPAPELLGGPSVFLFPPKPKDTLYITREPEVTCVVVDVSHEDPEVKFNWYVDGVEVHNAKTKPREEQYNSTYRVVSVLTVLHQDWLNGKEYKCKVSNKALPAPIEKTISKAKGQPREPQVYTLPPSRDELTKNQVSLTCLVKGFYPSDIAVEWESNGQPENNYKTTPPVLDSDGSFFLYSKLTVDKSRWQQGNVFSCSVMHEALKYHYTQKSLSLSPG
notes: Human IgG1 Fc fragment; substitutions already in the entry; also called Fc197
B6: Fc Fragment 17 (other)
chain: DKTHTCPPCPAPELLGGPSVFLFPPKPKDTLYITREPEVTCVVVDVSHEDPEVKFNWYVDGVEVHNAKTKPREEQYNSTYRVVSVLTVDHQDWLNGKEYKCKVSNKALPAPIEKTISKAKGQPREPQVYTLPPSRDELTKNQVSLTCLVKGFYPSDIAVEWESNGQPENNYKTTPPVLDSDGSFFLYSKLTVDKSRWQQGNVFSCSVLHEALKFHYTQKSLSLSPG
notes: as for B2
B7: Fc Fragment 2 (other)
chain: DKTHTCPPCPAPELLGGPSVFLFPPKPKDTLYITREPEVTCVVVDVSHEDPEVKFNWYVDGVEVHNAKTKPREEQYNSTYRVVSVLTVLHQDWLNGKEYKCKVSNKALPAPIEKTISKAKGQPREPQVYTLPPSRDELTKNQVSLTCLVKGFYPSDIAVEWESNGQPENNYKTTPPVLDSDGSFFLYSKLTVDKSRWQQGNVFSCSVLHEALKFHYTQKSLSLSPG
notes: Human IgG1 Fc fragment; substitutions already in the entry; also called Fc195
B8: Fc Fragment 12 (other)
chain: DKTHTCPPCPAPELLGGPSVFLFPPKPKDTLYITREPEVTCVVVDVSHEDPEVKFNWYVDGVEVHNAKTKPREEQYNSTYRVVSVLTVLHQDWLNGKEYKCKVSNKALPAPIEKTISKAKGQPREPQVYTLPPSRDELTKNQVSLTCLVKGFYPSDIAVEWESNGQPENNYKTTPPVLDSDGSFFLYSKLTVDKSRWQQGNVFSCSVMHEALRYHYTQKSLSLSPG
notes: as for B2
B9: Fc Fragment 16 (other)
chain: DKTHTCPPCPAPELLGGPSVFLFPPKPKDTLYITREPEVTCVVVDVSHEDPEVKFNWYVDGVEVHNAKTKPREEQYNSTYRVVSVLTVDHQDWLNGKEYKCKVSNKALPAPIEKTISKAKGQPREPQVYTLPPSRDELTKNQVSLTCLVKGFYPSDIAVEWESNGQPENNYKTTPPVLDSDGSFFLYSKLTVDKSRWQQGNVFSCSVMHEALKYHYTQKSLSLSPG
notes: as for B2
B10: Fc Fragment 19 (other)
chain: DKTHTCPPCPAPELLGGPSVFLFPPKPKDTLYITREPEVTCVVVDVSHEDPEVKFNWYVDGVEVHNAKTKPREEQYNSTYRVVSVLTVDHKDWLNGKEYKCKVSNKALPAPIEKTISKAKGQPREPQVYTLPPSRDELTKNQVSLTCLVKGFYPSDIAVEWESNGQPENNYKTTPPVLDSDGSFFLYSKLTVDKSRWQQGNVFSCSVMHEALKFHYTQKSLSLSPG
notes: as for B2
B11: Fc Fragment 20 (other)
chain: DKTHTCPPCPAPELLGGPSVFLFPPKPKDTLYITREPEVTCVVVDVSHEDPEVKFNWYVDGVEVHNAKTKPREEQYNSTYRVVSVLTVDHKDWLNGKEYKCKVSNKALPAPIEKTISKAKGQPREPQVYTLPPSRDELTKNQVSLTCLVKGFYPSDIAVEWESNGQPENNYKTTPPVLDSDGSFFLYSKLTVDKSRWQQGNVFSCSVMHEALKYHYTQKSLSLSPG
notes: as for B2
B12: Fc Fragment 11 (other)
chain: DKTHTCPPCPAPELLGGPSVFLFPPKPKDTLYITREPEVTCVVVDVSHEDPEVKFNWYVDGVEVHNAKTKPREEQYNSTYRVVSVLTVLHQDWLNGKEYKCKVSNKALPAPIEKTISKAKGQPREPQVYTLPPSRDELTKNQVSLTCLVKGFYPSDIAVEWESNGQPENNYKTTPPVLDSDGSFFLYSKLTVDKSRWQQGNVFSCSVLHEALHFHYTQKSLSLSPG
notes: as for B2

What was measured:
[1] = target: T1, mouse FcRn (mouse, UniProt Q61559 22-297; P01887 21-119, limits assumed); test: SPR, pH 7.4
T1 sequence (looked up) 1: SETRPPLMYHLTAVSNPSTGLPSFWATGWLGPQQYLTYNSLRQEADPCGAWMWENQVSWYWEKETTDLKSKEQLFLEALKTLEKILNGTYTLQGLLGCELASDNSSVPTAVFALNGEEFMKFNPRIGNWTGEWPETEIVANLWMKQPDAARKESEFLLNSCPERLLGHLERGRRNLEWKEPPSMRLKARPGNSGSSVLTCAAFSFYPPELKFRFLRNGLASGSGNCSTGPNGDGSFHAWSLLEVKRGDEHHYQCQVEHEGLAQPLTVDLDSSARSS
T1 sequence (looked up) 2: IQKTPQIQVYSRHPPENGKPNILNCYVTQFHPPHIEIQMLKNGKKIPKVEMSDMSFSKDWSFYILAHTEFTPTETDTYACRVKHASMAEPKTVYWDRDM

[2] = target: T2, cynomolgus monkey FcRn (cynomolgus monkey, UniProt Q8SPV9 24-297; Q8SPW0 21-119, limits assumed); test: SPR, pH 7.4
T2 construct: also called cynoFcRn

[3] = target: T3, rat FcRn (rat, UniProt P13599 23-298; P07151 21-119, limits assumed); test: SPR, pH 7.4
T3 sequence (looked up) 1: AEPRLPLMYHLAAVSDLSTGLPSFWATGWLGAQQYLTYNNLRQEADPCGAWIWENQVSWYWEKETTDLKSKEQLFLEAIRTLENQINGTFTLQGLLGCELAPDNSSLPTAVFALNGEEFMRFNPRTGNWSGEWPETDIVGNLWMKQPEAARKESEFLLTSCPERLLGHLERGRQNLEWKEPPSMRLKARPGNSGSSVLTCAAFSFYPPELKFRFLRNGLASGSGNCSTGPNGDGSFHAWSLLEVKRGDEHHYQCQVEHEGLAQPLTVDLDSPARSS
T3 sequence (looked up) 2: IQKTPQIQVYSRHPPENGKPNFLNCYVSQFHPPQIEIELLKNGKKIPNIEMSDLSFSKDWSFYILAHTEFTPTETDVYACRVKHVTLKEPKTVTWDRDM

[4] = target: T4, Recombinant in-house Human FcRn protein (human, UniProt P55899 24-297; P61769 21-119, limits assumed); test: SPR, pH 7.4
T4 construct: also called huFCRN; HuFcRn
T4 sequence (P55899 24-297 limits assumed, chain 1 of 2): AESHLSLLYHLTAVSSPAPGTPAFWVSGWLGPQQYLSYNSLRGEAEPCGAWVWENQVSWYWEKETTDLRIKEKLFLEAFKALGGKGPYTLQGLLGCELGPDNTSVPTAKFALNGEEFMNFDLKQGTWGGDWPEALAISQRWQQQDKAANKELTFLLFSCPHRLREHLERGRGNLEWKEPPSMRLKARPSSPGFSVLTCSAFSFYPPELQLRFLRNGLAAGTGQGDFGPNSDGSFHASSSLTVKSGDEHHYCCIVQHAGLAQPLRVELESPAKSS
T4 sequence (P61769 21-119 limits assumed, chain 2 of 2): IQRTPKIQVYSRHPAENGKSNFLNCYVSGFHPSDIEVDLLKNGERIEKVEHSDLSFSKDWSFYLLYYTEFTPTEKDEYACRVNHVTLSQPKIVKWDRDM

[5] = target: T1, mouse FcRn; test: SPR, pH 6
[6] = target: T2, cynomolgus monkey FcRn; test: SPR, pH 6
[7] = target: T3, rat FcRn; test: SPR, pH 6
[8] = target: T4, Recombinant in-house Human FcRn protein; test: SPR, pH 6
[9] = target: T4, Recombinant in-house Human FcRn protein; test: competitive binding ELISA, pH 6.0; competitor Efgartigimod (Fc Fragment 1)
[10] = target: T4, Recombinant in-house Human FcRn protein; test: competitive binding ELISA, pH 6.0, in triplicate; competitor IgG

Row | Binder | Kd [1] | Kd [2] | Kd [3] | Kd [4] | Kd [5] | Kd [6] | Kd [7] | Kd [8] | IC50 [9] | IC50 [10]
1 | B1 | 2.8 nM | 1370 nM | 12.3 nM | 239 nM | 0.269 nM | 39.7 nM | 3.71 nM | 8.8 nM | 4.82 nM | 2.85 nM
2 | B2 | – | 2110 nM | – | 262 nM | – | 51.2 nM | – | 58.7 nM | – | 6.91 nM
3 | B3 | – | 1430 nM | – | 291 nM | – | 60.8 nM | – | 76.4 nM | – | 30.3 nM
4 | B4 | 1.53 nM | 725 nM | 11.5 nM | 169 nM | 0.143 nM | 28.6 nM | 3.49 nM | 6.62 nM | 5.03 nM | –
5 | B5 | 2.38 nM | 948 nM | 14.9 nM | 210 nM | 0.172 nM | 28.9 nM | 4.25 nM | 6.74 nM | 4.59 nM | 0.77 nM
6 | B6 | – | 2190 nM | – | 293 nM | – | 62.1 nM | – | 68.3 nM | – | 10.2 nM
7 | B7 | 2.55 nM | 1540 nM | 11.8 nM | 259 nM | 0.182 nM | 36.2 nM | 3.5 nM | 8.05 nM | 4.09 nM | 1.31 nM
8 | B8 | 2.83 nM | 900 nM | 17.3 nM | 166 nM | 0.194 nM | 30.1 nM | 5.41 nM | 7.15 nM | 3.73 nM | 1.41 nM
9 | B9 | – | 1680 nM | – | 371 nM | – | 47.2 nM | – | – | – | 8.45 nM
10 | B10 | – | 1430 nM | – | 252 nM | – | 1250 nM | – | 80.4 nM | – | 7.98 nM
11 | B11 | – | 1550 nM | – | 290 nM | – | 372 nM | – | 51.7 nM | – | 5.18 nM
12 | B12 | 4.05 nM | 1700 nM | 14.7 nM | 269 nM | 0.248 nM | 38.6 nM | 2.9 nM | 8.41 nM | 6.47 nM | 1.51 nM
